Assay [1] addresses T1, 67B89 (domain of fibronectin) (UniProt P02751 1089-1540, limits assumed).
T1 construct: domain: EDB (67B89); Unrelated control protein; also called fibronectin domain EDB (67B89); extradomain B of fibronectin
The experiment in a line: SPR (Biacore 3000). The protocol: (§1) The purified proteins were immobilized on a CM-5 sensor chip (GE Healthcare) using NHS/EDC after PDEA activation resulting in 110-140 RU with a Biacore 3000 system (GE Healthcare). The chip was equilibrated with SPR running buffer (PBS 0.05% Tween pH 7.3). Upon binding, target analyte was accumulated on the surface increasing the refractive index. This change in the refractive index was measured in real time and plotted as response or resonance units versus time. The analytes were applied to the chip in serial dilutions with a flow rate of 30 μl/min. The association was performed for 120 seconds and the dissociation for 120 seconds. After each run, the chip surface was regenerated with 30 μl regeneration buffer (10 mM glycine pH 2.0) and equilibrated with running buffer.
(§2) Binding studies were carried out by the use of the BIAcore 3000 (GE Healthcare); data evaluation was operated via the BIAevaluation 3.0 software, provided by the manufacturer, using the Langmuir 1:1 model (RI=0). Evaluated dissociation constants (KD) were standardized against the immobilized protein and indicated. Shown is the change in refractive index measured in real time and plotted as response or resonance unit [RU] versus time [sec].
In general terms: Surface plasmon resonance follows binding to a sensor surface in real time, without labels.

For assay [2], the target named is T2, BSA (UniProt P02769 25-607).
T2 construct: Control protein
The experiment in a line: SPR (Biacore 3000). The method, then:
as §1, §2

For assay [3], the target named is T3, human collagen type V (human, UniProt P20908 559-1570; P05997 216-1229).
T3 construct: Bought; also called h Col V; type V collagen
The experiment in a line: SPR (Biacore 3000). The protocol:
as §1, §2

Assay [4] has as its target T1, 67B89 (domain of fibronectin). The assay is described as follows: SPR (Biacore), response at steady state; concentration not shown. The method, then:
as §1, §2

Assay [5] has as its target T4, human collagen type I (human, UniProt P02452 162-1218; P08123 80-1119).
T4 construct: Bought; also called h Col I; type I collagen
Described as above. The protocol: as §1, §2

The target of assay [6] is T2, BSA. The description is as above. The method, then: as §1, §2
Assay [7] deals with T3, human collagen type V. Described as above. The method, then: as §1, §2
Assay [8] deals with T5, human collagen type III (human, UniProt P02461 154-1221).
T5 construct: Bought; also called h Col III; type III collagen
T5 sequence (looked up): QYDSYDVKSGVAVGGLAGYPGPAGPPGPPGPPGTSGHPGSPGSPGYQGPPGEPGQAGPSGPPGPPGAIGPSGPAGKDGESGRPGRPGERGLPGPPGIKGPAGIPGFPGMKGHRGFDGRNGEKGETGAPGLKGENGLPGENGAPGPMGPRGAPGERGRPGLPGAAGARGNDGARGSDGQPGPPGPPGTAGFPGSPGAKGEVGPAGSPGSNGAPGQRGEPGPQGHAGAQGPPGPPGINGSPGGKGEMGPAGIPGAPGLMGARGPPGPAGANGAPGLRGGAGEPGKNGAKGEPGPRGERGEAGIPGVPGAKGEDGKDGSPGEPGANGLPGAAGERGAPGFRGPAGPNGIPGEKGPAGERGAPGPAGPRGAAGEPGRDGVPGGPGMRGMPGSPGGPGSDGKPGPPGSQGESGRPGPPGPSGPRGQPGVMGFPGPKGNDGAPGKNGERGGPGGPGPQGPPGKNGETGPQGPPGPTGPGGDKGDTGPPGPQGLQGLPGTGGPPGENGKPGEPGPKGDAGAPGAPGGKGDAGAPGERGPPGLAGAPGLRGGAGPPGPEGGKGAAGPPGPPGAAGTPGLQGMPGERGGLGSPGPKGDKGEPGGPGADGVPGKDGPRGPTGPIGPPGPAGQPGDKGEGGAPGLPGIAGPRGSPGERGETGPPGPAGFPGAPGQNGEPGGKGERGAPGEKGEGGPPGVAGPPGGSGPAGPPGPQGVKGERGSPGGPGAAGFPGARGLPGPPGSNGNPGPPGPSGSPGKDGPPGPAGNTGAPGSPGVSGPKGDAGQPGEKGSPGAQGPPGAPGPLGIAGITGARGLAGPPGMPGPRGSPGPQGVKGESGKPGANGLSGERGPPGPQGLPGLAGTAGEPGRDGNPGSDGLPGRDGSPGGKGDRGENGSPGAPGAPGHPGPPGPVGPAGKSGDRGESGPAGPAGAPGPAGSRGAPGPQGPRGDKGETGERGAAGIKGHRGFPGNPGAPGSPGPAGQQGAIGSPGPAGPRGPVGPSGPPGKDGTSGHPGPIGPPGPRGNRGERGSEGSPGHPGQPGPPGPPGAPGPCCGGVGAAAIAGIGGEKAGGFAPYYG
The description is as above. The protocol:
as §1, §2

Assay [9] deals with T6, porcine collagen type II (porcine).
T6 construct: Prepared in house from pig eyes; also called p Col II; porcine type II collagen
The assay is described as follows: ELISA (KD determination by ELISA, Example 5).

The target in assay [10] is T1, 67B89 (domain of fibronectin). The experiment in a line: ELISA, 67B89 coated on the plate, A 450-600 nm. The protocol:
(§3) High binding plates (Greiner, 781061) were immobilized with 2.5 μg/ml recombinant human collagen type II (h Col II, Chondrex, CHX-20051), rabbit collagen type II (rbCol II, prepared from rabbit eyes), porcine collagen type II (p Col II, prepared from porcine eyes), human collagen type I, (h Col I, Sigma, C5483-1MG), human collagen type V (h Col V, Abcam, ab7537), human collagen type III (h Col Ill, Abcam, ab7535) and 67B89 (domain of fibronectin, produced in E. coli) respectively over night at 4° C. ELISA-plates were washed 3 times with PBST (PBS+ 0.1% Tween) and blocked with 3% BSA/0.5% Tween/PBS 2 h at RT. […] Plates were washed with PBST and incubated with biotinylated anti-StrepTag-ab (Antikörper-online, ABIN1573895) with a dilution of 1:10.000 for 1 h at rt. The binding was visualized with a-rabbit-IgG-HRP (Sigma, A9169) with a dilution of 1:10.000 and as substrate TMB Plus von KEM EN TEC Diagnostic, Kat-Nr. 4395.
(§4) Results. ELISA analysis clearly confirms the specific binding to type II collagen. […] No unspecific binding to type I collagen, type III collagen, type V collagen or to a domain of fibronectin (67B89) was detected (FIG. 2).
A general note: In an ELISA, binding on a coated surface is turned into a signal by an enzyme label.

Assay [11] has as its target T5, human collagen type III. The experiment in a line: ELISA, h Col III coated on the plate, A 450-600 nm. The protocol: as §3, §4
Assay [12] addresses T3, human collagen type V. The experiment in a line: ELISA, h Col V coated on the plate, A 450-600 nm. The protocol: as §3, §4
The target of assay [13] is T6, porcine collagen type II. The assay is described as follows: ELISA, collagen coated on the plate, dilution series of the binder, detection via StrepTag, A 450-600 nm. The protocol: as §3, §4
For another assay, the target named is T7, rabbit collagen type II (rabbit).
T7 construct: Prepared from rabbit eyes; also called rbCol II
Described as above. The protocol:
as §3, §4

The target in assay [14] is T4, human collagen type I. The experiment in a line: ELISA, h Col I coated on the plate, A 450-600 nm. The protocol: as §3, §4

Among the data in patent US20230416345A1 (NAVIGO PROTEINS, published 2023) are binding result and Kd values, retold here.

T3 sequence (P20908 559-1570, chain 1 of 2): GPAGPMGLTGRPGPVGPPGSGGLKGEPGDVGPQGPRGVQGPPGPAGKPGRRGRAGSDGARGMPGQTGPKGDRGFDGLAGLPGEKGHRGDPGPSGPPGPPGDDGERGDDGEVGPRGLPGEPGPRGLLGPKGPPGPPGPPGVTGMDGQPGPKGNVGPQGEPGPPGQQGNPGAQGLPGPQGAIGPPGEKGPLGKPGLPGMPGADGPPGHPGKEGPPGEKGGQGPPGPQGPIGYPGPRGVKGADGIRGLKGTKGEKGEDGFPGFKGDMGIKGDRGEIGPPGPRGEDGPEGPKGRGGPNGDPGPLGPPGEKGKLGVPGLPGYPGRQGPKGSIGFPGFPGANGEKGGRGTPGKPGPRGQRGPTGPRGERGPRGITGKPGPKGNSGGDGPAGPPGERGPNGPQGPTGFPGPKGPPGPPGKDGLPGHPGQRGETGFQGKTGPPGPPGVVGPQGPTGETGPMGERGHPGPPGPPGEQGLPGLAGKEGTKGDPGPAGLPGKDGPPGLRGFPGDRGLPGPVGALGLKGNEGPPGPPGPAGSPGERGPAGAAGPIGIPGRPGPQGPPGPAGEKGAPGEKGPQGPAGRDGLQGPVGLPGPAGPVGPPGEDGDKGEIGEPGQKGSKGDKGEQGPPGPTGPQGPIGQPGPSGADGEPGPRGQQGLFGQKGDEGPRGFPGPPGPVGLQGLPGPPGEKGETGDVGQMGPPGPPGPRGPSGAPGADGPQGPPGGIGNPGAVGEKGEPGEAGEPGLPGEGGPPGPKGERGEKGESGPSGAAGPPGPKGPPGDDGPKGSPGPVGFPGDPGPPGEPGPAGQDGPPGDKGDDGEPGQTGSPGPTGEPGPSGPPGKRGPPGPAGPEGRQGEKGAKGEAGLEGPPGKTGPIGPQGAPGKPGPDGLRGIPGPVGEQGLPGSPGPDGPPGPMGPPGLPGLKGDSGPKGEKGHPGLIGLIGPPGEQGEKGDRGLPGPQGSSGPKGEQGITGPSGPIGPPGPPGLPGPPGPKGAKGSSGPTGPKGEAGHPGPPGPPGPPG
T3 sequence (P05997 216-1229, chain 2 of 2): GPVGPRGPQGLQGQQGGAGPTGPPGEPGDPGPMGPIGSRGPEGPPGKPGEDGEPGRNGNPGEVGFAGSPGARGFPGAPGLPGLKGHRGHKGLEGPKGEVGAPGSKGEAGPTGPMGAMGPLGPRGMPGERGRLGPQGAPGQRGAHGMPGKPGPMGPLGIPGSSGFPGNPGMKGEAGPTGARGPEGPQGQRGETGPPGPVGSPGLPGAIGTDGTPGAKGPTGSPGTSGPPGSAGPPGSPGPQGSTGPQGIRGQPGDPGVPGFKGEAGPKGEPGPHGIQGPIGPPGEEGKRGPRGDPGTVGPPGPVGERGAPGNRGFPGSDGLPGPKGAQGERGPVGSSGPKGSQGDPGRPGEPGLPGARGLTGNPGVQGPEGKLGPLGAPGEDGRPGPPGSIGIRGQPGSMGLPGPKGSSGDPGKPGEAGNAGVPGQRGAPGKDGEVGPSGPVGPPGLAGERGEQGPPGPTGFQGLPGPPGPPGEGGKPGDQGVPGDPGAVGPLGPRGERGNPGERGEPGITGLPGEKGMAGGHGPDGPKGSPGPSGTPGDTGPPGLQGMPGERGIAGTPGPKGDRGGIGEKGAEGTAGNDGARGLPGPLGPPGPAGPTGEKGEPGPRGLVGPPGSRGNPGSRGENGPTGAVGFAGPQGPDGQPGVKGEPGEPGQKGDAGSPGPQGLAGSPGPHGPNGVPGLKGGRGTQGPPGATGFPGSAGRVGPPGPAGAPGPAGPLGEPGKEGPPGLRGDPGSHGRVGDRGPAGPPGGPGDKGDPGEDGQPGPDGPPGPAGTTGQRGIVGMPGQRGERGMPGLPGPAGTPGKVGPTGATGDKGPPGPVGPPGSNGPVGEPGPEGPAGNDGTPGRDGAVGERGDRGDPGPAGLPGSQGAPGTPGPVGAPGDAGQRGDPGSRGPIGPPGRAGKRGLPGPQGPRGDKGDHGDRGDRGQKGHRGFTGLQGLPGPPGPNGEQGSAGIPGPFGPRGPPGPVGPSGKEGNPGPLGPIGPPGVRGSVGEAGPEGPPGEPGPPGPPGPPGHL
T4 sequence (P02452 162-1218, chain 1 of 2): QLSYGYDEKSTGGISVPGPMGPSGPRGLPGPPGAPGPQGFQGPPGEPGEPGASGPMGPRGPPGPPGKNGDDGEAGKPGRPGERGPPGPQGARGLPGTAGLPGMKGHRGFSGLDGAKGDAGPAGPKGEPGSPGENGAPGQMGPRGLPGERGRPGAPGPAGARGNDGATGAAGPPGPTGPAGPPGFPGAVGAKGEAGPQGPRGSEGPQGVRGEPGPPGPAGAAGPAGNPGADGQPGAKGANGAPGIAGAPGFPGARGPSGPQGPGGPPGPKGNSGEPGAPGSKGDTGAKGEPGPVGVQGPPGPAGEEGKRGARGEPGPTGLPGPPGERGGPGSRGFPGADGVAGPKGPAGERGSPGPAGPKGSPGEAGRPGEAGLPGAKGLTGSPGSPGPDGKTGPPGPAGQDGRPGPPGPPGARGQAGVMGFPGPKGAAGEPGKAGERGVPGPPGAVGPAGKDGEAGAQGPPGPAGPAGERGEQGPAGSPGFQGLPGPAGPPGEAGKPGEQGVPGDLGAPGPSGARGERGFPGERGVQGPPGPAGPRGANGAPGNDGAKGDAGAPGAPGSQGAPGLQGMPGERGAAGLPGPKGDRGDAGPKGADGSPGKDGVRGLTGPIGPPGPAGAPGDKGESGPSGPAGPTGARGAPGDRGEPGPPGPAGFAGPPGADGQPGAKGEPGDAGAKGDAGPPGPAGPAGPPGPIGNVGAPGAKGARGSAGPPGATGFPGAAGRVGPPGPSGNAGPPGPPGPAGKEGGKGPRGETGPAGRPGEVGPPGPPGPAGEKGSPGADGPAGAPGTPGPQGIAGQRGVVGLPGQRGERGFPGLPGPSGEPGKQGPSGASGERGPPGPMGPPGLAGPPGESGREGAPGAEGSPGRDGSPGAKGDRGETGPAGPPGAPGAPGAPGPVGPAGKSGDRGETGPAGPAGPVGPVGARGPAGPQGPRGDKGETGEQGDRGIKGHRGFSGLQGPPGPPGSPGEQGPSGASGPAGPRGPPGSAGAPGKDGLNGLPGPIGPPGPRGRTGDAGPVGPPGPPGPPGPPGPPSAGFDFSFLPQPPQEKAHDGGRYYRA
T4 sequence (P08123 80-1119, chain 2 of 2): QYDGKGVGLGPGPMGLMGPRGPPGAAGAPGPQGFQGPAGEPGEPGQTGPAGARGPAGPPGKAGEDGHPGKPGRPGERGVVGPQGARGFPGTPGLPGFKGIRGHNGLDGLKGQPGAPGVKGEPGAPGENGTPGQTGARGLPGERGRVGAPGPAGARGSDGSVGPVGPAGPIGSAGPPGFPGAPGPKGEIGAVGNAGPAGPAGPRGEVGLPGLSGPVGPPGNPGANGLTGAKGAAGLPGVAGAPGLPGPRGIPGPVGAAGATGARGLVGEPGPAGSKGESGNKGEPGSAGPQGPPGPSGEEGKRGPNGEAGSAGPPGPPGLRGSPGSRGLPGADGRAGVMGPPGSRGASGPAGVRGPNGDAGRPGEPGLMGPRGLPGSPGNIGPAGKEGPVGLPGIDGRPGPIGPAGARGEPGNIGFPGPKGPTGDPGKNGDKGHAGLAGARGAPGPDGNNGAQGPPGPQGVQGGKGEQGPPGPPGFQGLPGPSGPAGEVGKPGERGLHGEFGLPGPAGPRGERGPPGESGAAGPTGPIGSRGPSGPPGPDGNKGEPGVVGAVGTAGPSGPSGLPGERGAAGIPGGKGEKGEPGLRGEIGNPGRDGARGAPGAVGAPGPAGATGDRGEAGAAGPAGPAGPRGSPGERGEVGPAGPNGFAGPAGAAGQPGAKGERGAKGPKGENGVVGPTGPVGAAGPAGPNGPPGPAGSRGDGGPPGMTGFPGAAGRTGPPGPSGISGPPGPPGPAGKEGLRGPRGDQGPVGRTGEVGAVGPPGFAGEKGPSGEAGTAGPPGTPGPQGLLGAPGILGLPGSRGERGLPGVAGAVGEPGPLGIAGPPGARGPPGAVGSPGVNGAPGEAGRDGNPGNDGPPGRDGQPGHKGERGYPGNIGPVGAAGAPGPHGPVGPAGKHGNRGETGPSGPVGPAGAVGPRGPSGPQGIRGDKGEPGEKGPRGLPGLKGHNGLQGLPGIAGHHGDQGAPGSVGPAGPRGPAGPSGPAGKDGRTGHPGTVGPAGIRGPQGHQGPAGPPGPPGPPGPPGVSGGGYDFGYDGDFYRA
T1 sequence (P02751 1089-1540 limits assumed): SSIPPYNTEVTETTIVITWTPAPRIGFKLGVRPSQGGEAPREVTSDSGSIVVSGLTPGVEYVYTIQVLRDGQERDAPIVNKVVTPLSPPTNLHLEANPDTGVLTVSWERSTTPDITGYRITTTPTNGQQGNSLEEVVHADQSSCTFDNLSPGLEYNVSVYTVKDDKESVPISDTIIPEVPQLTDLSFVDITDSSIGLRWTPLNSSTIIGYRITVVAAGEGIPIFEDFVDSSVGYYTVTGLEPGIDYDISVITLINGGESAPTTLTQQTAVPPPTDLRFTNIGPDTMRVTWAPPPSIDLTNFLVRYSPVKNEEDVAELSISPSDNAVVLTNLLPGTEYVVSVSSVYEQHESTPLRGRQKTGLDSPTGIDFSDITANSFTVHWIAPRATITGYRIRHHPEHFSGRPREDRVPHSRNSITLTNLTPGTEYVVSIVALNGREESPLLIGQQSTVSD

B1: 211190 (SEQ ID NO: 1) (designed binder)
chain: NAASHDEAQLSALVEIWDLPNLTTRQKQKFIYSLQRDPSVSKEVLGEAQKLNDSQAPK
notes: also called CID211190; not shown: C-terminal Strep-tag from the expression vector
For the molecule B1, the binding result (in assay [1]; with BSA [2]; with human collagen type V [3]) was “no binding” throughout.

B2: 211519 (SEQ ID NO: 37), homodimer of SEQ ID NO: 11 (designed binder)
chain: IAAKFDEAQQAAFYEILHLPNLTEQQRNYFIQWLRDDPSVSPTVLGTAQQLNDSQAPKIAAKFDEAQQAAFYEILHLPNLTEQQRNYFIQWLRDDPSVSPTVLGTAQQLNDSQAPK
notes: also called CID 211519; not shown: C-terminal Strep-tag from the expression vector
As a reminder, the Kd is the free concentration of one partner at which half of the binding sites on the other are occupied at equilibrium, for simple one-to-one binding. High values mean weaker binding, low ones tighter binding. On to B2, for which the binding result (in assay [4]; with human collagen type I [5]; with BSA [6]; with human collagen type V [7]; with human collagen type III [8]) was “no binding” throughout. Besides, the Kd with porcine collagen type II [9] worked out at 0.7 µM.

B3: CID 212000 (SEQ ID NO: 39), dimer of SEQ ID NO: 2 with linker between the monomers (designed binder)
chain: IAAKFDEAQSAADSEILHLPNLTEQQRHYFRRWLSDDPSVSTHILTQAQHLNDDQAPKGGGGSGGGGSGGGGSGGGGSIAAKFDEAQSAADSEILHLPNLTEQQRHYFRRWLSDDPSVSTHILTQAQHLNDDQAPKSAWSHPQFEK
notes: not shown: C-terminal Strep-tag (detected with anti-StrepTag antibody)
As to B3, the binding result (in assay [10]; with human collagen type III [11]; with human collagen type V [12]; with human collagen type I [14]) was “no binding (tested: about 1100 nM)” in each case. The values for the Kd with porcine collagen type II [13] and with rabbit collagen type II were 0.00911 µM and 0.012 µM, respectively.

B4: CID 212001 (SEQ ID NO: 41), tetramer of SEQ ID NO: 2 (designed binder)
chain: IAAKFDEAQSAADSEILHLPNLTEQQRHYFRRWLSDDPSVSTHILTQAQHLNDDQAPKIAAKFDEAQSAADSEILHLPNLTEQQRHYFRRWLSDDPSVSTHILTQAQHLNDDQAPKIAAKFDEAQSAADSEILHLPNLTEQQRHYFRRWLSDDPSVSTHILTQAQHLNDDQAPKIAAKFDEAQSAADSEILHLPNLTEQQRHYFRRWLSDDPSVSTHILTQAQHLNDDQAPKSAWSHPQFEK
notes: as for B3
Consider B4, for which the binding result (in [10]; in the assay with human collagen type III [11]; in the assay with human collagen type V [12]; with human collagen type I [14]) was “no binding (tested: 100 nM)” in each case. For the same molecule, the Kd with porcine collagen type II [13] came out at 0.00027 µM; in the assay with rabbit collagen type II, 0.00021 µM.

B5: CID 211999 (SEQ ID NO: 38), dimer of SEQ ID NO: 2 (directly joint monomers) (designed binder)
chain: IAAKFDEAQSAADSEILHLPNLTEQQRHYFRRWLSDDPSVSTHILTQAQHLNDDQAPKIAAKFDEAQSAADSEILHLPNLTEQQRHYFRRWLSDDPSVSTHILTQAQHLNDDQAPKSAWSHPQFEK
notes: as for B3
B5: the binding result (in assay [10]; with human collagen type III [11]; with human collagen type V [12]; with human collagen type I [14]) was “no binding (tested: about 1100 nM)” each time. Moreover, the values for the dissociation constant Kd with porcine collagen type II [13] and with rabbit collagen type II were 0.0143 µM and 0.0211 µM, respectively.
